According to patent US20120177664A1:

Target: A beta oligomer (synthetic A beta1-40, HCl form, 0.1 mg/ml in PBS, incubated at 37 degrees C for one hour) (UniProt P05067)
Experiment: SPR (Biacore 3000)

Q: What does the source list for Anti-A beta antibody 6E10?
A: Kd: 2.91 nM; koff: 0.000168 s⁻¹; kon: 57800 M⁻¹ s⁻¹
